Data published in patent US20220228157A1, “GENE EDITING IN DIVERSE BACTERIA” (priority 2019, published 2022).

B1: PapRecT: SSAP from Pseudomonas aeruginosa, SEQ ID NO: 24, UniParc ID: UPI0001E9E6CB (protein, listed as Pseudomonas aeruginosa)
chain: MGTALTPLLTKFATRYEMGTTPEEVANTLKQTCFKGQVNDSQMVALLIVADQYKLNPFTKELYAFPDKNNGIVPVVGVDGWARIINENPQFDGMEFSMDQQGTECTCKIYRKDRSHAISATEYMAECKRNTQPWQSHPRRMLRHKAMIQCARLAFGFAGIYDQDEAERIVERDVTPAEQYEDVSEAICLIKDSPTMEDLQAAFSNAWKAYKTKGARDQLTAAKDQRKKELLDAPIDVEFEETGDDRAA
B2: CspRecT: RecT SSAP (UniParc ID: UPI0001837D7F) from a phage of Collinsella stercoris (protein)
chain: MNQIVKFTDDSGLAVQVTPDDVRRYICENATEKEVGLFLQLCQTQRLNPFVKDAYLVKYGGAPASMITSYQVFNRRACRDANYDGIKSGVVVLRDGDVVHKRGAACYKKAGEELIGGWAEVRFKDGRETAYAEVALDDYSTGKSNWAKMPGVMIEKCAKAAAWRLAFPDTFQGMYAAEEMDQAQQPEQVRAQAEQPVDLQPIRELFKPYCEHFGITPAEGMTAVCGAVGAEGMHSMTEQQARRARAWMEEEMAAPAVEAEYEVVDEGEVF
modifications: Collinsella stercoris DSM 13279
B3: Redβ: Redβ SSAP from Enterobacteria phage λ, SEQ ID NO: 474 (protein)
chain: MSTALATLAGKLAERVGMDSVDPQELITTLRQTAFKCDASDAQFIALLIVANQYGLNPWTKEIYAFPDKQNGIVPVVGVDGWSRIINENQQFDGMDFEQDNESCTCRIYRKDRNHPICVTEWMDECRREPFKTREGREITGPWQSHPKRMLRHKAMIQCARLAFGFAGIYDKDEAERIVENTAYTAERQPERDITPVNDETMQEINTLLIALDKTWDDDLLPLCSQIFRRDIRASSELTQAEAVKALGFLKQKATEQKVAA
modifications: Bacteriophage Lambda

Columns and labels:
L. rhamnosus = assay type: cell-based; conditions: L. rhamnosus
Experimental: Finally, the model for RecT was used to establish recombineering in L. rhamnosus, a well-studied probiotic used to treat a variety of illnesses including diarrhea and bacterial vaginosis. Although the L. rhamnosus SSB and L. lactis SSB only have 47% identity, they share identical SSB C-terminal tail 7 amino acids. It was determined whether LrpRecT (which functions in L. lactis) is portable to L. rhamnosus, while the other RecT proteins would not be functional.

E. coli = assay: Editing efficiency by NGS, non-coding mismatch at a non-essential gene; assay type: cell-based, Escherichia coli; conditions: silent mismatch MAGE oligo, SEER plasmid system
Experimental: Top-performing SSAPs and SSAP/SSB pairs from experiments in E. coli, L. lactis, and M. smegmatis are shown in FIG. 2A, FIG. 2B and FIG. 2C, respectively. Bars in red are the proteins that had previously been reported in the literature. The proteins listed were found after ten rounds of selection for protein variants that enabled the introduction of an oligonucleotide that conferred a genomic edit that provided antibiotic resistance. Unbiased editing efficiency was tested in each case by introducing a non-coding base change at a non-essential gene and measuring the frequency of incorporation via next generation sequencing.
Their recombineering efficiency was tested against Redβ expressed off of its wild-type codons on the same plasmid system used for the SEER selections. […]
The efficiency of each SSAP or SSAP/SSB pair was measured by expressing them off of their host-specific plasmid in the naïve parent strain and running a recombineering cycle with an oligo that confers a 4-nucleotide non-coding mismatch in a non-essential gene. The allele was then amplified by PCR and editing efficiency was measured by next-generation sequencing.
To measure single locus editing, a recombineering cycle was run with an oligo that confers a single base pair non-coding mismatch in a non-essential gene. The allele was then amplified by PCR and editing efficiency was measured by NGS as described above. […]

E. coli SEER chassis = assay: SEER library selection (frequency and enrichment by NGS); assay type: cell-based, Escherichia coli; conditions: Broad RecT Library, 10 rounds of SEER
Experimental: Therefore, it was determined whether by screening additional RecT variants, again exploiting the increased throughput of SEER compared to previous efforts, one might discover recombineering proteins further improved over Redβ and PapRecT. To this aim a second library was constructed, identifying a maximally diverse group of 109 RecT variants, 106 of which were synthesized successfully, which was called Broad RecT Library (see Methods for more details). Next, as previously described, 10 rounds of SEER selection was performed on Broad RecT Library (FIGS. 8A-8B), and upon plotting frequency against enrichment after the final selection, a clear winner emerged (FIG. 9A). […]
Native resistance alleles were identified in each of the three species for resistance to rifampicin (rif) at the rpoB locus or streptomycin (stm) at the rpsL locus. The concentration of antibiotic necessary to confer a selective benefit to the resistant allele was determined for each strain. […]
Primers were designed to amplify a 215 bp product containing the barcode region of the SSAP libraries from the pARC8 plasmid and to add on Illumina adaptors. […] Barcoded amplicons were then purified with AMPure XP magnetic beads (Beckman Coulter), pooled, and the final pooled library was quantified with the NEBNext Library Quant Kit for Illumina (NEB). […]

Molecule	Oligonucleotide incorporation (L. rhamnosus)	Efficiency of recombineering at ynfF by NGS (E. coli)	Frequency against enrichment after final selection (E. coli SEER chassis)
B1	negligible activity	31%±2%	–
B2	–	–	clear winner
B3	negligible activity	–	–
